Reference: patent US9289506B2, “Surface binding of nanoparticle based drug delivery to tissue” (Massachusetts Institute of Technology, priority 2013, dated 2016)

What was measured:
[1] = pH 7
Description: For the non-covalent conjugation, drug was entrapped inside Avidin structure supra-molecularly, while an ester linker and/or pH sensitive hydrazone linker was utilized for the covalent conjugation.

[2] = Non-equilibrium diffusive transport across cartilage disks (transport cell); type: in vitro ADME, bovine; conditions: free FITC added upstream at t=186 min
Protocol: Real-time measurement of diffusive transport of Avidin and NeutrAvidin through young bovine cartilage disks (with intact superficial zone) was measured using a diffusion chamber consisting of two compartments as described previously (Garcia et al., Arch Biochem Biophys, 2003). Groups of three cartilage disks (6 mm diameter, 400 μm thick) were clamped by O-rings between the two compartments of the diffusion chamber (with total exposed tissue area for transport of 0.28 cm^2/disk), such that solute transport from the upstream compartment into and across the cartilage disks, simultaneously, could occur only from the superficial zone of the cartilage (schematic shown in the inset of FIG. 14). The compartments were treated with casein to prevent non-specific adsorption of solutes to the chamber surfaces. […] Aliquots were taken from each chamber at different time intervals, and fluorescence was measured using a plate reader.
The compartment volume of 25 ml is approximately 1,000× larger than the volume of the cartilage plugs in the configuration of FIG. 14 (inset). […] This configuration thereby focuses on quantitation of steady state solute flux and assessment of effective solute diffusivity within cartilage. […]
[formula] where δ is the thickness of the cartilage disk (˜400 μm). DEFF for Avidin was calculated to be 3.8×10^−7 cm^2/s. […]

[3] = Competitive binding of FITC-Avidin and unlabeled Avidin in cartilage (binding isotherm fit); set-up: species or system bovine; conditions: labeled Avidin ≦1 μM, no unlabeled Avidin, 3 day equilibration, 37° C.
Protocol: To test this hypothesis, competitive binding experiments were performed in which 3 mm diameter cartilage disks were equilibrated for 3 days in 300 μl buffer containing a fixed amount of (fluorescently labeled) FITC-Avidin (1 μM) and graded amounts of unlabeled Avidin (0, 10, 76, 100, and 203 μM). The disks were split into half disks to reduce the time needed for equilibration, which was performed in 96 well plates at 37° C. The uptake ratio, RU, was measured and plotted versus the total bath concentration of Avidin (labeled+unlabeled, FIG. 13), where RU is defined as the total concentration of Avidin inside the cartilage (bound (CB) plus free (CF)) per intra-tissue water weight, normalized to the Avidin concentration in the equilibration bath (CBath):
Labeled and unlabeled Avidin were held to partition into the cartilage identically. At very low concentration of the labeled Avidin (≦1 μM), a high uptake of ˜120 was observed. When unlabeled Avidin was added to the bath, both species (labeled and unlabeled) could compete for the same (constant) number of binding sites available in the tissue (site density NT). […] To model the data of FIG. 13, a first-order, bimolecular, reversible reaction was produced to describe binding of Avidin to a single dominant binding species within cartilage. A theoretical model was adopted, (Garcia et al., Arch Biochem Biophys, 2003) previously used for characterizing the binding of soluble insulin like growth factor-1 (IGF-1) to IGF-binding proteins (IGF-BPs) that are uniformly enmeshed and fixed within cartilage matrix. According to this model, the equilibrium molar concentration of free solute (CF), bound solute (CB), intra-tissue binding site density (NT) and the equilibrium dissociation constant (KEQ) are related by the binding isotherm:
[formula] which is similar in form to a Langmuir adsorption isotherm. […]
[formula] […] Thus, K is determined by both steric hindrance and electrostatic (Donnan) interactions. […]

[4] = rabbit knee; cited from earlier work
[5] = One-way diffusion of solutes into cartilage half disks in transport chamber, confocal microscopy imaging; type: in vitro ADME, bovine; conditions: normal cartilage, 4 days
Description: Solute Types: Two types of 15 nm diameter (MW˜300 kDa) Quantum Dots (QD) were used: (i) positively charged, and (ii) charge-neutral; same concentration. Transport of FITC (MW˜300 Da, diam˜0.9 nm) and dextrans (Dex) conjugated with FITC (Sigma Aldrich) of different MW (˜8 kDa, diam˜4.3 nm; ˜40 kDa, diam˜10 nm) were also investigated.
Transport Studies: A special PMMA transparent transport chamber was designed to allow diffusion of solutes into only one side (superficial zone) of the cartilage disk. The chamber was treated with Casein to block non-specific binding of solutes to chamber surfaces. The equilibrated cartilage disks were then cut into halves and placed in the middle of the ‘slot chambers’ of the fixture. The chamber side facing the superficial zone was filled with ˜45 μl of solute-PBS solution; the other side was filled with 1×PBS alone. […]
Using a scalpel, a slice (100-200 μm thick) was then cut from the center of each disk (FIG. 1B). […] Appropriate filters were chosen to eliminate auto-fluorescence of cartilage at the settings used for imaging. […] To ensure proper image comparison, solute concentrations were chosen such that the FITC concentration in each solution was identical, thereby giving equal fluorescence intensities.

[6] = Equilibrium uptake and desorption of Avidin and NeutrAvidin in cartilage disks; type: in vitro ADME, bovine
Description: Cartilage disks were harvested from the femoropatellar grooves of 1-2 week old bovine calf knee joints (obtained from Research 87, Hopkinton, Mass.) as described previously (Patwari et al., Arthritis Rheum, 2003). Briefly, cylindrical cartilage disks (3 mm or 6 mm diameter) were cored using a dermal punch and then sliced to obtain the top 1 mm of cartilage with intact superficial zone. Cartilage disks for all treatment groups were matched for depth and location along the joint surface. The disks were then pre-equilibrated in PBS (without Ca^2±/Mg^2±) supplemented with protease inhibitors (Complete Protease Cocktail tablet in 50 mL PBS, Roche Applied Science, IN) in a 37° C., 5% CO2 incubator for 24-48 h.
Equilibrium uptake of Avidin and NeutrAvidin: 3 mm diameter, 1 mm thick cartilage explants were incubated for specific times in 300 μl of known concentration (3 μM) of FITC-Avidin and FITC-NeutrAvidin, supplemented with protease inhibitors at 37° C. in a 96 well plate format. After removal from the absorption baths, the disks were rinsed, gently wiped and then incubated in 1× or 10×PBS supplemented with protease inhibitors for 24 h or longer as specified. At the end of the experiment, the surfaces of each disk were quickly blotted with Kimwipes and the wet weight was measured. The disks were then lyophilized and the dry weight was measured; the water weight was calculated from the tissue wet and dry weights. The fluorescence signal in the absorption and desorption baths was quantified using a plate reader (1400 Wallace Victor, PerkinElmer, MA); the solute content inside the cartilage disk was determined from the difference between the fluorescence reading of the absorption/desorption baths before and after incubation. […] The solute uptake ratio was calculated as the concentration of the FITC-solute in the cartilage (per intra-tissue water weight) normalized to the concentration of FITC-solute in the equilibration bath.

[7] = Intra-articular injection of Avidin or Neutravidin in rat knee joints: penetration, uptake and retention in joint tissues
Protocol: Intra-articular (i.a.) injections of 50 μl of 50 μM Avidin (pI 10.5, 66 kDa, diameter ˜7 nm) or Neutravidin (neutral at pH 7, 60 kDa, diameter ˜7 nm) conjugated with Texas Red (both from Invitrogen, CA) were administered in the right knee joints of healthy 18-20 weeks old Fischer-344 rats (Charles River Laboratories). Following the injection, rat knees were flexed and extended to distribute the injected solute throughout the intra-articular space. Contralateral left knees were used as controls. Avidin injected rats were sacrificed at 4 different time points (6 h, 1 d, 4 d, 7 d) and Neutravidin injected rats were sacrificed after 1 day. The following tissue types were extracted from each joint: articular cartilage removed from the patellar groove, femoral condyle and tibial plateau using a scalpel; medial and lateral menisci; i.a. ligaments (ACL & PCL); patellar and quadriceps tendons; and femoral bone. 6 rats were used per treatment condition for a total of 30 rats. Using a digital caliper (Fisher Scientific), the joint thickness was measured before and after the injection at each time point to check for joint swelling indicating an inflammatory response to the injection.
Tissue samples extracted from the rat joints injected with Avidin-Texas Red (Excitation at 595 nm and emission at 615 nm) and sacrificed at 6 h were imaged using a confocal microscope (OLYMPUS, FluoView FV1000) at 10× magnification by taking Z stacks. Images were taken in X-Y plane, which represents the surface through which Avidin diffused. 3D images were reconstructed using Z stacking (slice thickness˜4.5 μm) and cross-sections in the X-Z plane of these 3D images were taken.
Tissue samples from all treatment conditions were then desorbed in 10×PBS for 48 h in 37° C. incubator to disrupt electrostatic interactions and release Avidin/Neutravidin into the desorption bath. […] At the end of the experiment, tissue samples were removed from the bath, lyophilized and the dry weight was measured. Fluorescence signal from desorption bath was quantified using a plate reader (Synergy HT, BioTek). […] The solute uptake was calculated as the concentration of labeled solute in the tissue samples normalized by tissue dry weight.
The half-life of Avidin was calculated by fitting an exponential curve to the experimental data:
Where, C0 is the initial and C(t) is the final Avidin concentration in tissue after time t and λ is the decay constant.

hydrazone linker: Avidin conjugated with dexamethasone through pH sensitive hydrazone linkage via biotinylated PEG (FIG. 21C, FIG. 24)
stability of linker [1]: extremely stable

fluorescein isothiocyanate [Fluorescein Isothiocyanate (FITC), reference compound]
diffusivity [2]: 2.8×10^−5 cm^2/s

Avidin-FITC: FITC-conjugated Avidin [reference compound]
uptake ratio RU [3]: ~120

albumin
Half-life [4]: 1.23 to 3.9 h

NeutrAvidin: electrically neutral globular protein at pH 7, 60 kDa, diameter ~7 nm; neutral counterpart of Avidin [reference compound]
penetration into cartilage explant [5]: penetrated approximately half the sample thickness | percent of absorbed solute diffused out of the cartilage ([6]; 1×PBS, within 1 day): About 50% | mean uptake ratio ([6]; 40% GAG-depleted cartilage (chondroitinase-ABC), 24 h): 0.55 | partition coefficient KNeutrAvidin ([6]; estimated from the data of FIG. 12B): 0.44 | mean uptake ratio ([6]; normal cartilage, 24 h): 0.28 | mean uptake ratio ([6]; normal cartilage, 4 days): ~0.44 | presence in rat cartilage and patellar tendon ([7]; 24 h after i.a. injection): no Neutravidin present | presence in meniscus, ligaments and quadriceps tendon ([7]; 24 h after i.a. injection, compared to Avidin): small but very insignificant amounts | detection in the femoral bone ([7]; any time point): Neither Avidin nor Neutravidin was detected | clearance from joint after i.a. injection ([7]; within 24 h): almost complete clearance
